# Experimental data taken from article PMC4072462.
# B1: fabBec B+D (dsDNA)
# DNA 1: TCTATTAAATGGCTGATCGGACTTGTTCGGCGTACAAGTGTACGCTATTGTGCATTC
# DNA 2: GAATGCACAATAGCGTACACTTGTACGCCGAACAAGTCCGATCAGCCATTTAATAGA
# B2: fabAec B+D (dsDNA)
# DNA 1: TTTATTCCGAACTGATCGGACTTGTTCAGCGTACACGTGTTAGCTATCCTGCGTGC
# DNA 2: GCACGCAGGATAGCTAACACGTGTACGCTGAACAAGTCCGATCAGTTCGGAATAAA
# Biological target: FabR_vc (N-terminal His6) (Vibrio cholerae, UniProt Q9KVJ2 1-213)
# Test: EMSA
row,Binder,binding result
1,B1,binds
2,B2,binds
